Paper PMC7553779 (eLife, 2020)

T1: human acid-sensing ion channel 1a (hASIC1a), full-length, wild type (human, UniProt P78348-2 1-528)
T1 sequence (looked up): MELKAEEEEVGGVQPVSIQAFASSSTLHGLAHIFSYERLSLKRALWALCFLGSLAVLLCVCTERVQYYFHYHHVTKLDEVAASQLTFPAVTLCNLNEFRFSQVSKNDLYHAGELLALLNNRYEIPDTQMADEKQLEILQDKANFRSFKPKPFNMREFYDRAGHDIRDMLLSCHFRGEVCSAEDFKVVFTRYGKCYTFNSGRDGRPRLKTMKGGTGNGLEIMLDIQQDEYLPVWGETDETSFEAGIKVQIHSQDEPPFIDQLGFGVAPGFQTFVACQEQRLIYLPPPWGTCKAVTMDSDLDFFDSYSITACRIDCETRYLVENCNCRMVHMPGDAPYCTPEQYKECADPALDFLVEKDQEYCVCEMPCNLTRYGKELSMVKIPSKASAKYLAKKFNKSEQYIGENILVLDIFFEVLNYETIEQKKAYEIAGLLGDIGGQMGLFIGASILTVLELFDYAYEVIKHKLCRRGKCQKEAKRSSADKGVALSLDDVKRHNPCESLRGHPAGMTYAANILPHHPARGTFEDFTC

T2: chicken acid-sensing ion channel 1 (cASIC1), full-length (chicken, UniProt Q1XA76 1-527)
T2 sequence (looked up): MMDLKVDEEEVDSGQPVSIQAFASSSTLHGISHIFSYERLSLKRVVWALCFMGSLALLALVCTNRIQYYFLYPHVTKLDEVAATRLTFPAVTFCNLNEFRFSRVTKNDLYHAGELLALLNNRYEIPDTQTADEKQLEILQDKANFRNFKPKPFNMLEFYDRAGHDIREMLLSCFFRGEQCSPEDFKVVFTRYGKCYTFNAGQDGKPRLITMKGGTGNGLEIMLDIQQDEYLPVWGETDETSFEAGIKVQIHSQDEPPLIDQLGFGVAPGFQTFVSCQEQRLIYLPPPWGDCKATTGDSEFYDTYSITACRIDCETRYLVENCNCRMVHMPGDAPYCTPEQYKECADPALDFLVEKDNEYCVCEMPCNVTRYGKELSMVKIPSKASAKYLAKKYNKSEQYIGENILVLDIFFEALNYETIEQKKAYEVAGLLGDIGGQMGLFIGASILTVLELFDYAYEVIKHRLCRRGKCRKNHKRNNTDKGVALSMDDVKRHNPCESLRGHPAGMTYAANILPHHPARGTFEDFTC

B1: truncated human acid-sensing ion channel 1a with the 60 carboxyl terminal residues removed (hASIC1a^ΔC) (domain or fragment)
chain: MELKAEEEEVGGVQPVSIQAFASSSTLHGLAHIFSYERLSLKRALWALCFLGSLAVLLCVCTERVQYYFHYHHVTKLDEVAASQLTFPAVTLCNLNEFRFSQVSKNDLYHAGELLALLNNRYEIPDTQMADEKQLEILQDKANFRSFKPKPFNMREFYDRAGHDIRDMLLSCHFRGEVCSAEDFKVVFTRYGKCYTFNSGRDGRPRLKTMKGGTGNGLEIMLDIQQDEYLPVWGETDETSFEAGIKVQIHSQDEPPFIDQLGFGVAPGFQTFVACQEQRLIYLPPPWGTCKAVTMDSDLDFFDSYSITACRIDCETRYLVENCNCRMVHMPGDAPYCTPEQYKECADPALDFLVEKDQEYCVCEMPCNLTRYGKELSMVKIPSKASAKYLAKKFNKSEQYIGENILVLDIFFEVLNYETIEQKKAYEIAGLLGDIGGQMGLFIGASILTVLELFDYAYEVIKHKLCRR
notes: Trimer in the cryo-EM structures; […]; also called apo-hASIC1a^ΔC

What was measured:
[1] = target: B1; experiment: cryo-EM structure; hASIC1a^ΔC-Mamba1 complex, toxin added in a 6:1 molar ratio of toxin to channel, 1 hr at 4°C, 20 mM Tris pH 8.0, 200 mM NaCl, 0.05% DDM, 0.01% CHS; 3.1 mg/ml; 3.90 Å; conditions: both partners purified
[2] = target: T1, human acid-sensing ion channel 1a …; experiment: cell-based or functional assay
[3] = target: T2, chicken acid-sensing ion channel 1 …; experiment: cell-based or functional assay
[4] = target: the molecule itself; experiment: cryo-EM structure; apo-hASIC1a^ΔC, single-particle cryo-EM, 2.7 mg/ml, 20 mM Tris pH 8.0, 200 mM NaCl, 0.05% DDM, 0.01% CHS; C3 symmetry imposed; 3.56 Å

Binder | stoichiometry N [1] | IC50 of inhibition of acid-evoked (pH 6.0) currents, whole-cell patch clamp, full-length hASIC1a in CHO cells [2] | IC50 of inhibition of full-length hASIC1a in CHO cells ('the reported IC50', Figure 1b) [2] | IC50 of inhibition of acid-evoked (pH 6.0) currents, whole-cell patch clamp, full-length cASIC1 in CHO cells [3] | stoichiometry N [4]
Mambalgin1 (Mamba1) (also called wild-type Mamba1) LKCYQHGKVVTCHRDMKFCYHNTGMPFRNLKLILQGCSSSCSETENNKCCSTDRCNK | 1 Mamba1 per hASIC1a^ΔC subunit | 197 nM | 149 nM | 124 nM | –
B1 | – | – | – | – | 3
